The supplement of paper PMC10057847, “Precision engineering of biological function with large-scale measurements and machine learning” (PLOS ONE, 2023)
± gives the uncertainty stated by the source.

B1: library; the commonest letter at each place (parent)
chain: MKPVTLYDVAEYAGVSYQTVSRVVNQASHVSAKTREKVEAAMAELNYIPNRVAQQLAGKQSLLIGVATSSLALHAPSQIVAAIKSRADQLGASVVVSMVERSGVEACKAAVHNLLAQRVSGLIINYPLDDQDAIAVEAACTNVPALFLDVSDQTPINSIIFSHEDGTRLGVEHLVALGHQQIALLAGPLSSVSARLRLAGWHKYLTRNQIQPIAEREGDWSAMSGFQQTMQMLNEGIVPTAMLVANDQMALGAMRAITESGLRVGADISVVGYDDTEDSSCYIPPLTTIKQDFRLLGQTSVDRLLQLSQGQAVKGNQLLPVSLVKRKTTLAPNTQTASPRALADSLMQLARQVSRLESGQ

Tests used:
Conditions in all cases: with IPTG
[1] = variants of: B1
Procedure: (§1)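 LacI variants on the pVER plasmid regulate eYFP behind lacO in E. coli MG1655Δlac, grown in rich M9 at 37 °C with a 2-fold IPTG dilution series. After two 160-min growth steps, YFP is read by flow cytometry and calibrated to MEF. Bayesian MCMC fits of the Hill equation give G0, G∞, EC50 and n (posterior mean ± SD).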

[2] = variants of: B1; assay: Hill coefficient n (dimensionless); higher = steeper dose response
Procedure: as §1

[3] = variants of: B1; assay: basal output G0 (YFP, no IPTG) (log10 MEF); higher = higher reporter expression without inducer
Procedure: as §1

[4] = variants of: B1; assay: saturating output G-infinity (YFP) (log10 MEF); higher = higher reporter expression at saturating IPTG
Procedure: as §1

Variant	EC50 for IPTG (log10 µmol/L) [1]	Hill coefficient n [2]	basal output G0 (log10) [3]	saturating output G-infinity (log10) [4]
MKPVTLYDIAEYAGVSYQTVSRVVNQASHVSAKTREKVEAAMAELNYIPNRVAQQLAGKQSLLIGVATSSLALHAPSQIVAAIKSRADQLGASVVVSMVERSGVEACKAAVHNLLAQRVSGLIINYPLDDQDAIAVEAACTNVPALFLDVSDQTPINSIIFSHEDGTRLGVEHLVALGHQQIALLAGPLSSVSARLRLAGWHKYLTRNQIQPIAEREGDWSAMSGFQQTMQMLNEGIVPTAMLVANDQMALGAMCAITDSGLRVGADISVVGYDDTEDSSCYIPPLTTIKQDFRLLGQTSVDRLLQLSQGQAVKGNQLLPVSLVKRKTTLAPNTQIASPRALADSLMQLARQVSQLESGQ [V9I R255C E259D T336I R355Q]	1.05 ± 0.014	1.38 ± 0.044	3.374 ± 0.028	4.5116 ± 0.0042
MKPVTLYDVAEYAGVSYQTVSRVVNQASHVSAKTREKVEAAMAELNYIPNRVAQQLAGKQSLLIGVATSSLALHAPPQIVAAIKSRADQLGASVVVSMVERSGVVACKAAVHNLLAQRVSGLIINYPLDDQDAIAVEAACTNVPALFLDVSDQTPINSIIFSHEDGTRLGVEHLVALGHQQIALLAGPLSSVSARLRLAGWHKYLTRNQIQPIAEREGDWSAMSGFQQTMQMLNEGIVPTAMLVANDQMALGAMRAITESGLRVGADISVVGYDDTEDSSCYIPPLTTIKQDFRLLGQTSVDRLLQLSQGQAVKGNQLLPVSLVKRKTTLAPNTQTASPRALADSLMQLARQVSRLESGQ [S77P E105V]	2.049 ± 0.0095	1.59 ± 0.043	2.53 ± 0.067	4.1995 ± 0.004
MKPVTLYDVAEYAGVSYQTVSRVVNQASHVSAKTREKVEAAMAELNYIPNRVAQQLAGKQSLLIGVATSSLALHAPSQIVAAIKSRADQLGASVVVSMVERSGVEACKAAVHNLLAQRVSGLIINYPLDDQDAIAVEAACTNVPALFLDVSDQTPINSINFSHEDGTRLGVEHLVALGHQQIALLAGPLSSVSARLRLAGWHKYLTRNQIQPIAEREGDWSAMSGFQQTMQMLNEGIVPTAMLVANDQMALGAMRAITESGLSVGADISVVGYDDTEDSSCYIPPLTTIKQDFRLLGQTSVDRLQQLSQGQAVKGNQLLPVSLVKRKTTLAPNTQTASPRALADSLMQLARQVSRLESGQ [I160N R263S L305Q]	2.561 ± 0.022	1.61 ± 0.054	1.14 ± 0.59	4.285 ± 0.012
MKPVTLYDVAEYAGVSYQTVSRVVNQASHVSAKTREKVEAAMAELNYIPNRVAQQMAGKQSLLIGVATSSLALHAPSQIVAAIKSRADQLGASVVVSMVERSGVEACKAAVHNLLAQRVSGLIINYPLDDQDAIAVEAACTNVPALFLDVSDQTPINSIIFSHEDGTRLGVEHLVALGHQQIALLAGPLSSVSVRLRLAGWHKYLTRNQIQPIAEREGDWSAMSGFQQTMQMLNEGIVPTAMLVANDQMALGAMRAITESGLRVGADISVVGYDDTEDSSCYIPPLTTIKQDFRLLGQTSVDRLLQLSQGQAVKGNQLLPVSLVKRKTTLAPNTQTASPRALADSLMQLARQVSRLESGQ [L56M A194V]	2.393 ± 0.016	1.42 ± 0.045	3.9036 ± 0.0036	4.549 ± 0.0059
MKPVTLYDVAEYAGVSYQTVSRVVNQASHVSAKTREKVEAAMAELNYIPNRVAQQLAGKQSLLIGVATSRLALHAPSQIVAAIKSRADQLGASVVVSMVERSGVEACKAAVHNLLAQRVSGLIINYPLDDQDAIAVEAACTNVPALFLDVSDQTPINSIIFSHEDGTRLGVEHLVALGHQQIALLAGPLSSVSARLRLAGWHKYLTRNQIQPIAEREGDWSAMSGFQQTMQMLNEGIVPTAMLVANDQMALGAMRAITESGLRVGADISVMGYDDTEDSSCYIPPLTTIKQDFRLLGQTSVDRLLQLSQGQAVKGNQLLPVSLVKRKTTLAPNTQTASPRALADSLMQLARQVSRLESGQ [S70R V271M]	1.521 ± 0.012	1.46 ± 0.044	2.7 ± 0.066	4.268 ± 0.0045
